The values that follow come from US20250019454A1 (BIOCYTOGEN PHARMACEUTICALS BEIJING, published 2025).

Positions count from the first letter of the chain named.

Experiment [1] concerns the target T1, ΔCRD3-TNFR2 protein (with CRD3 deletion), on CHO-S cells (human, UniProt P20333 23-461).
T1 construct: also called CHO-SΔCRD3-TNFR2; TNFR2 lacking CRD3
T1 sequence: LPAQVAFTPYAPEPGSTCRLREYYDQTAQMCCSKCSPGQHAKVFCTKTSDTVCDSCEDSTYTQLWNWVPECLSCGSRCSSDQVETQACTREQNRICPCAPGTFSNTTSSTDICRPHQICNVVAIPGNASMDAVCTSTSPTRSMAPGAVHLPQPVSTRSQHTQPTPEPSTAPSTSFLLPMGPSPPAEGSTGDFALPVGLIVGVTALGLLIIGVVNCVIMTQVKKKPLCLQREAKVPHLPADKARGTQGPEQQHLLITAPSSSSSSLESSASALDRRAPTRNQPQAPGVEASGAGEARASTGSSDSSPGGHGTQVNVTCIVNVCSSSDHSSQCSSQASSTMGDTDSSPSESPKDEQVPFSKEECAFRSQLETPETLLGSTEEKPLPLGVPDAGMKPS
The experiment is described as follows: FACS on CHO-S cells with ΔCRD3-TNFR2. From the text:
(§1) TNFR2 has four cysteine rich domains (CRD). In another experiment, FACS was used to detect the binding of anti-hTNFR2 antibodies to TNFR2 proteins with different structural domains. Secondary antibody (Alexa Fluor® 647 AffiniPure F(ab′) 2 Fragment Goat Anti-Human IgG, Fcγ fragment specific, Jackson ImmunoResearch Laboratories, Inc., Cat #: 151524) was used. The fluorescence-labeled secondary antibody can attach to the Fc region of the anti-hTNFR2 antibodies so that the anti-hTNFR2 antibodies that are bound to the ΔCRD cells can be detected by FACS. Specifically, ΔCRD1-TNFR2 protein (with CRD1 deleteion), ΔCRD2-TNFR2 protein (with CRD2 deleteion), ΔCRD3-TNFR2 protein (with CRD3 deleteion) or ΔCRD4-TNFR2 protein (with CRD4 deleteion) were expressed in CHO-S cells respectively, and then the binding between the cells and different anti-hTNFR2 antibodies was detected.

In experiment [2] the target is T2, His-tagged human TNFR1 (Human TNFR1/CD120a/TNFRSF1A Protein, His Tag, Acrobiosystems Cat #: TN1-5222) (human, UniProt P19438 30-211).
T2 construct: Bought protein; also called hTNFR1-His; hTNFR 1-His; not shown: His tag
T2 sequence (looked up): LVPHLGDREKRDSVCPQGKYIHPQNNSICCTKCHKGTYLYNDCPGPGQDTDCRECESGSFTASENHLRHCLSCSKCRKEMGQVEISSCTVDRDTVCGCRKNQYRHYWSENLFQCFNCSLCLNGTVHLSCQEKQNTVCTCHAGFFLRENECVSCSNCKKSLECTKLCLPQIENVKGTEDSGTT
In words: SPR Biacore 8K, antibody captured on Protein A chip. How it is done: The binding affinity of the anti-TNFR2 antibodies to human TNFR2 and TNFR1 (Tumor necrosis factor receptor 1) were measured using surface plasmon resonance (SPR) using Biacore (Biacore, INC, Piscataway NJ) 8K biosensor equipped with pre-immobilized Protein A sensor chips.
Purified anti-TNFR2 antibodies were diluted to 1 μg/mL and then injected into the Biacore 8K biosensor at 10 μL/min for about 50 seconds to achieve a desired protein density (e.g., about 50 response units (RU)). […] Dissociation was monitored for 600 seconds. The chip was regenerated after the last injection of each titration with Glycine (pH 2.0, 30 μL/min for 30 seconds).

The target of experiment [3] is T1, ΔCRD3-TNFR2 protein (with CRD3 …). The experiment is described as follows: FACS on CHO-S cells with ΔCRD3-TNFR2, AF647 anti-human IgG Fc secondary.
Source text: as §1

For experiment [4], the target named is T3, ΔCRD4-TNFR2 protein (with CRD4 deletion), on CHO-S cells (human, UniProt P20333 23-461).
T3 construct: also called CHO-SΔCRD4-TNFR2; TNFR2 lacking CRD4
T3 sequence: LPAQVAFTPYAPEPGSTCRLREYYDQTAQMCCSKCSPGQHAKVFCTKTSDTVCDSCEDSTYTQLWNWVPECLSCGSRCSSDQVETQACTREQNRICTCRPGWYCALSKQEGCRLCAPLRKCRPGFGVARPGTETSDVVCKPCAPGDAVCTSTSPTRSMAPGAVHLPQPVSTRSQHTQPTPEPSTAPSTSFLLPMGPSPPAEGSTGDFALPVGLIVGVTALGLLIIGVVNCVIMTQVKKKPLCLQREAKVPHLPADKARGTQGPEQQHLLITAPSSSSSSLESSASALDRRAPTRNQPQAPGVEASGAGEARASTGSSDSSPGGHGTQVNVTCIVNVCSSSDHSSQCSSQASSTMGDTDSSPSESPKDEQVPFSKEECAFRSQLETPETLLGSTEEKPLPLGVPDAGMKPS
In words: FACS on CHO-S cells with ΔCRD4-TNFR2, AF647 anti-human IgG Fc secondary.
Source text: as §1

Experiment [5] addresses T4, human TNFR2 (expressed on cells) (human, UniProt P20333 23-461).
T4 construct: also called hTNFR2; human TNF Receptor 2
T4 sequence: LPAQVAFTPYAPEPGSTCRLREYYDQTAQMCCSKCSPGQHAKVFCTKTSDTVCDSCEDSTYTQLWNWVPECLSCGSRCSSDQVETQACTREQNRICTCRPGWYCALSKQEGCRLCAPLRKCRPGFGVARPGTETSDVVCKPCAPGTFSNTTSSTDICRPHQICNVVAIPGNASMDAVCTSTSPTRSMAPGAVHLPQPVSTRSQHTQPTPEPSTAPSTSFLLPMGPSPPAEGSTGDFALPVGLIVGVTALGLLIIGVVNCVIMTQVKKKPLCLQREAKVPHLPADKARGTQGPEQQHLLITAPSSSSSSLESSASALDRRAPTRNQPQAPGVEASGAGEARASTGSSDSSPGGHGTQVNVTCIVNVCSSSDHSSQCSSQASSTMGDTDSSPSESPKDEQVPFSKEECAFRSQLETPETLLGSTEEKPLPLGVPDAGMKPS
In words: flow cytometry competition, CHO cells with human TNFR2, antibody 0.625 µg/mL, Biotin-hTNFα 0.5 µg/mL. How it is done:
(§2) 30 μl of Biotin-hTNFα (Acro Biosystems, Cat #: TNA-H82E1) was added to each well (with a final concentration of 0.5 μg/mL in each well). The cells with Biotin-hTNFα and the antibodies were incubated at 4° C. for 30 minutes.
(§3) The signals for AF647 and PE were determined by flow cytometry (Thermo Attune NX).
For orientation: A flow cytometer gives signals particle by particle.

For experiment [6], the target named is T4, human TNFR2 (expressed on cells). The experiment is described as follows: flow cytometry competition, CHO cells with human TNFR2, antibody 0.1565 µg/mL, Biotin-hTNFα 0.5 µg/mL. The method, then:
as §2, §3

B1: BC-1C3-IgG1 (antibody, V domains shown)
VH: QVQLVESGGGVVHPGKSLRLSCAASGFTFNIYGMHWVRQAPGKGLEWVALISYDGNDKYFADSVKGRFTISRDNSKNTLYLQMNSLRAEDTAVYYCAKAVDTAVVTFFDYWGQGTLVTVSS
VL: EIVMTQSPVTLSVSPGERATLSCRASQSVSSNLAWYQQKPGQAPRLLIYSASTRATGIPARFSGSGSGTEFTLTISSLQSEDLAVYYCQQYSNWPFTFGPGTKVDIK
notes: Human VH/VL joined to the human IgG1 subtype
For the molecule B1, the figures for the binding result in experiment [1] and in experiment [2] were “no binding” and “no binding (tested: up to 200 nM analyte)”, respectively. The “positive rate of binding (% of cells)” value in experiment [3] came out at 0.81%; in experiment [4], 1.85%. The “percentage of tested cells that had Streptavidin signals” value (shortened to “percentage”) in experiment [5] is 77.3%; in experiment [6], 74.3%.

B2: BC-1A8-IgG1 (antibody, V domains shown)
VH: QVQLQQSGPGLVKPSQTLSLTCAISGDSVSSNSAAWNWIRQSPSRGLEWLGRTYYRSKWYNDYALSVKSRITINPETSKNQFSLQLNSVTPEDTAVYYCAREDGVGGTKDYFDYWGQGTLVTVSS
VL: DIQMTQSPSSLSASVGDRVTITCQASQDIDNYLNWYQQKPGKAPKLLIYDVSNLEIGVPSRFSGSGSGTDFTFTISSLQPEDIATYYCQQYDNLPLTFGQGTRLEIK
notes: Fully human VH/VL joined to the human IgG1 subtype, kappa light chain (RenMab mice)
Consider B2, for which the figures for the binding result in experiment [1] and in experiment [2] were “no binding” and “no binding (tested: up to 200 nM analyte)”, respectively. Also, the “positive rate of binding (% of cells)” value turned out to be 0.52% in experiment [3] and 29.4% in experiment [4]. Also, the “percentage” value turned out to be 58.6% in experiment [5] and 67.4% in experiment [6].

B3: BC-1F4-IgG1 (antibody, V domains shown)
VH: B2 VH with N32D, A34S, A64T, L65V, E76D
VL: B2 VL with D30S, V51A, I56T, S76N, I83F, Y87F, L96I
notes: as for B1
For B3, the binding result is “no binding” in experiment [1] and “no binding (tested: up to 200 nM analyte)” in experiment [2]. In addition, the “positive rate of binding (% of cells)” value in experiment [3] was determined as 0.47%; in experiment [4] it was 21.3%. Also, the figures for the “percentage” value in experiment [5] and in experiment [6] were 61.9% and 76.2%, respectively.

B4: BC-1B6-IgG1 (antibody, V domains shown)
VH: QVQLVESGGGVVQPGRSLRLSCAASGFTFSNFGMHWVRQAPGKGLEWVAVIWYEGSDKYYADSVKGRFTISRDNSKNTLYLQMNSLRAEDTAVYYCARDSSWGFLLYGMDVWGQGTTVTVSS
VL: DVVMTQSPLSLPVTLGQPASISCRSSRSLEYSDGNTYLNWFQQRPGQSPRRLIYKVSNRDSGVPDRFSGSGSGTAFTLKISGVEAEDVGVYYCMQGTHWPPTFGGGTKVEIK
notes: as for B1
For the molecule B4, in experiment [2], the binding result is “no binding (tested: up to 200 nM analyte)”. Besides, the “percentage” value in experiment [5] was 80.4%; in experiment [6] it was 82.7%.

B5: BC-1F10-IgG1 (antibody, V domains shown)
VH: QVQLQQWGAGLLKPSETLSLICAVYDGSFSGDYWSWIRQPPGKGLEWIGEINHSGSTNYNPSLKSRVTISVDTSKNQFSLKLSSVTAADTAVYYCARGHWNYDYYYGMDVWGQGTTVTVSS
VL: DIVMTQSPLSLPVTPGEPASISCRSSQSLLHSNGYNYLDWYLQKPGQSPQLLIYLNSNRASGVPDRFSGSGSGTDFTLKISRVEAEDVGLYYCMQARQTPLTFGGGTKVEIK
notes: as for B1
Consider B5, for which the binding result in experiment [2] is on record as “no binding (tested: up to 200 nM analyte)”. Further, the figures for the “positive rate of binding (% of cells)” value in experiment [3] and in experiment [4] were 23.1% and 38.3%, respectively. The “percentage” value in experiment [5] came out at 60.2%; in experiment [6], 55.2%.
